# Test results taken from the nanobody polyreactivity screen of Harvey et al. (2022).
# Assay: yeast display, Sf9 membrane polyspecificity reagent, FACS + sequencing; frameworks hold sequencing errors
# Outline: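 A synthetic nanobody library was expressed on Saccharomyces cerevisiae BJ5465 by galactose induction for 36–48 hours. The library was stained for 1 hour at 4 °C with 10% biotinylated, detergent-solubilized Sf9 membrane reagent and enriched with streptavidin microbeads before FACS. Low and high (top ~1%) gates were set on anti-HA fluorescence for expression and streptavidin fluorescence for reagent binding, and each polyreactivity label reflects the gate of origin.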
row,Sequence,polyreactivity (PSR sort gate)
1,QVQLVESGGGLVQAGGSLRLSCAASGLTFRINAMGWYRQAPGKERELVAAITDSGTSTSYADSVKGRFTISRDNAKNTVYLQMKSLKPEDTAVYYCAADVRPGYYLYRSWGAYDYWGQGTQVTVSS,low polyreactivity
2,QVQLVESGGGLVQAGGSLRLSCAASGFIFAKYAMGWYRQAPGKERELVAAITSGGSTNYADSVKGRFTISRDNAKNTVYLQMNSLKPEDTAVYYCNRGFDWWYRYRHYDYWGQGTQVTVSS,low polyreactivity
3,QVQLVESGGGLVQAGGTIRLSCAASGIIFRLNPMGWYRQAPGKERELVAAIRRRGGSTYYADSVKGRFTISRDNGKNNVYLQMYSVKPEETEVYHCAKDPHGSDFGYWGQGTHVTVSS,low polyreactivity
4,QVQLVESGGGLVQAGGSLRLSCAASGSNFRYYAMGWDRQAPGKERELVAAISYSGGTTYYADSVKGRFTISRDNAKNTVYLQMNSLKPEDTAVYYCAVPLIGVDGYAYDYWGQGTQVTVSS,low polyreactivity
5,QVQLVESGGGLVQAGGSHRLSCAASGRTFYRYVMGWYRQAPGKERELVAAIRSSGTSTYYADSVKGRFTISRDNAKNTVYLQINSLKPEDTAVNYCARDSYRGYVYSLDYWGQGNQVTVSS,high polyreactivity
6,QVQLVESGGGLVQAGGSLRLSCAASGSTLIVYAMGWYRQAPGKEREFVAGITVSTGSTYYADSVKGRFTISRDNAKNTVYLQMNSQKPEDTAVYYCAADIRDGWDYFLFWEDGMDYSGQGTQVTVSS,low polyreactivity
7,QVQLVESGGGLVQAGGSLRLSCAASGRIFSVYAMGWYRQEPGKERELVAAITRNGATTYYADSVKGRFTISRDNAKNTVYLQMNSLKPEDTAVYYCAARPLFASRTKYGYWGQGTQVTVSS,high polyreactivity
8,QVQLVESGGGLVQAGGSLRLSCAASGIIFVQYAMGWYRQAPGKERELVAGITRRGGSTYYADSVKGRFTISRDNAKNTVYLQMNSLKTEDTAVFYCAATRPGDVLYRNEYWGQGTQVTVSS,high polyreactivity
9,QVQLVESGGGLVQAGGSLRLSCAASGRTFGWYTMGWYRHAPGKERELVAAISRSGTSTYYADSVKGRFTISRDNAKNTVYLQMHSLKPEDTAVYYCAQYVNARGGNDWGQGTLVTVSS,high polyreactivity
10,QVQLVESWGGLVQARGRLRLSFAASGSTYQNAMRCYRQAPGKEREFVAAISWSGGSTYYGDSVKGRFTISRDNAKNTVYLQMNSLKPEDTAVYYCAAYSYFSPWYDYWGQGTQVTVSS,high polyreactivity
11,QVQLVESGGGLVQAGGSLRLSCAASGGTFRVYVMGWYRQAPGKERELVADISRGGGSTYYADSVKGRFTISRDNAKNTVYLQMNSLKPEDTAVYYCAARVCRYPWRASEYDYWGQGTQVTVSS,high polyreactivity
12,QVQLVESGGGLVQAGGSLRLSCAASVSTFYSYVMGWSRQAPGKETELVAAITYSGGRTYYADSVKGRFTISRDNAKNTVYLQMNSLKPEDTAVYYCAKRVFNYQRYDYWGQGTQVTVSS,high polyreactivity
13,QVQLVESGGGLVQAGGSLRLSCAASGRTFHSNAMGWYRKAPGKERELVAAIRFGGGSTYYADSVKGRFTISRDNAKNTVYLQMNSLKPEDTAVYYCNASPLWIGWEIVPVGSSHYDYWGQGTQVTVSS,low polyreactivity
14,QVQLVESGGGLVQAGGSLRISCAASGSIFTFYAMGRYRQAPGKERELVATITWLGGSTYADSVKGRFTISRDNAKNTVYLQMNSLKPEDTAVYYCAKYLGRQHEKDLGGMNYWGQGTQVTVSS,high polyreactivity
15,QVQLVESGGGLVQAGGSLRLSCAASGSIFESNDMGWYRQAPGKERELVAAYADSVKGRFTISRDNAKNTVYLQMNSLKPEDTAVYYCAKSLSLYVVPLYEYWGQGTQVTVSS,low polyreactivity
16,QVQLVESGGGLLQAGGSLRLSCAASGRICRYYAMGGYRQAPGKERELVAGIRTSGGRTYADSVKGRFTISRDYAKNTVYLQMNSLKPEDTAVYYCAAGRRTLSMYYWGQGTQVTVSS,high polyreactivity
17,QVQLVDSGGGLVQAGGSLRVSCAASGSILPLNAMGWYRQGPGKERELVADISWSGGDTYYADSVKGRFTISRDNAKNTVYLQMNSLKPEDTSVYYCAADLHTELYKMDYWGQGTQVTVSS,low polyreactivity
18,QVQLVESGGGLVQAGGSLRLSCAASGRIFVLYAMGWYRQAPGKERELVADITFDGGSTYYADSVKGRFTISRDNAKNTVYLQMNSLKPEDTAVSFCAARYRWSRKRYNDYDYWGQGTQVSVSS,high polyreactivity
19,QVQLVESWGGLVQAGGSLRLSCAASGRIFHRYAMGWYRQAPGKEREFVAAITYSTGTTYYADSVKGRFTISRDNAKITVYLQMNSLKPEDPAVYYCAKDRRFWHKTWFAYGYDYWGQGTQVTVSS,low polyreactivity
20,QVQLVESGGGLVQAGGSLRLSCAASGSNFEYYTMGWYRQAPGKEREFVAAITFTGDSTYYADSVKGRFTSSRDNAKNTVYLQMNSLTPEDTAVYYCNDDSDTYDGEYDYWGQGTQVTVSS,low polyreactivity

row,Sequence,polyreactivity (PSR sort gate)
1,QVQLVESGGGLVQAGGSLRLSCAASGRIFLYYAMGWYRQAPGKERELVAAISRRGASTYYADSVKGRFTITRDNAKNNVYLQMHSLKPEDTAVYYCGTVPGKSGDYWGQGTQLTVSS,high polyreactivity
2,QVQLVESGGGLVQAGGSLRLSCAASGGIFYSYAMGWYRQAPGKERELVAAISGRGGSTYYADSVKGRFTISRDNAKNSVNLQMNSLKPEDTAVYYCNALGSQRYDYWGQGTQVTVSS,high polyreactivity
3,QVQIVESGGGLVQAGGSLRLSCAASGFTFRAYAMGWYRQAPGKERELDAAISKSGGRTYYADSVKGRFTISRDNAKNTVYLQMNSLKPEDTAVYYCAKAYRRAFINNPDVYYYPDDYWGQGTQVTVSS,high polyreactivity
4,QVQVVESGGGLVQAGGSLRLSCAASGRTFGVYAMGWSRQAPGKERELVAVINRSGGSTYYADSVKGRFTISRDNAKYTVYLQMNSLNPEDTAVYSCDKASAYSAYDDHDDYWGHGTQVTVSS,high polyreactivity
5,QVHLVESGGGLVQAGGSLRLSCAASGGTIAFNGMGWYRQAPGKDRELVAAITWRSGSTYYADSVKGRFTISRDNPKNPVYLQMNSLKPDDTAVYYCNAARAVYTQKRFDSWGQGTQVTVSS,high polyreactivity
6,QVQLVESGGGLVQAGGSLRLSCAASGRTFYTNAMGWYRQAPGKERELVAAITRGGTTYYADSVKGRFTISRDNAKNTVYLQMNSLKPVDTAVYYCAADTESIVATDLIRKYDYWGQGTQVTVSS,low polyreactivity
7,QVQLVESGGGLVQAGGSLRLSCAASGFTFTKNAMGWYRQAPGKERELVAAISRGGRTYYADSVKGRFTISRDNAKNTVYLQMNSLKPEDTADYYCAKGYASQILVAPRSQYYYWGQGTQVTVSS,high polyreactivity
8,QVQIVESGGGLVQAGGSLRLSCAASGSTFTLNAMGWYRQAPGKERELVADISWSSGRTYYADSVKGRFTISRDNAKNTVYLQMNSLKPEDTAVYYCAARLPFEHVDYWGQGTQVTVSS,low polyreactivity
9,QVQLVESGGGLVQAGGSLRLSCAASGSTFNVYAMGWYRQAPGKERELVARISWSGGNTYYADSVKGRFTISRDNAKNTVYLQMNSLKPEDTAVYYCATKGYTGYAYRYGYWGQGTQVTVSS,high polyreactivity
10,QVQLVESGGGLVQAGGSLRLSCAASGSTFESYAMVWYRQAPGKERELVAAISRRGGRTYYADSVKGRFTISRDNAKNTVYLQMNSLKPEDTAVYYCATDSSYYGSDDYWGQGTQVTVSS,high polyreactivity
11,QVQLVESGGGLVQAGGSLRLSCAASGRIFRYYAMGWYRQAPVKDRELVARINIGGSTYYADSVKGRFTISRDNAKNTVYLKMNSLLREDTAVYYCAAVPRPVSRTIWGDYWGEGTQVTVSS,high polyreactivity
12,QVQHVETGGGLVQAGGSLRLSCAASGFLFYFNDKGWYRQAPGKERELVASITSGASTNYADSVKGRFTISRDNAKNTVYLQMNSLKPEDTAVYYCAAAYFWLYPYVEYDYWGQGTQVTVSS,low polyreactivity
13,QVQLVESGGGLVQAGGSLRLSCAASGSNFRYNAMGWYRQAPGKERALVAAISGRGTSTYYADSVKGRFTISRDNAKNTVYLQMNSLKPEDTAVYYCAAVYFRTFLVEYYYWGQGTQVTVSS,high polyreactivity
14,QVQLVESGGGLVQAGGSLRLSCAASGSIFAINAMGWYRQAPGKERELVAAIRRRDGNTYYADSVKGRFTISRDNAKNSVYLQMNSLKPEDTAVYYCNTYSRRTSVIAYRYNYWGQGTQVTVSS,high polyreactivity
15,QVQLLESGGGLVQAGGSLRLSCAASGSTFLIYAMGWYRQAPGKERELVASINLNTGRTSYADSVKGRFTISRDNAKNTVYLQMNSLKPEDTAVYYCAAELWVRFRGVKEYDYWGQGTQVSVSS,high polyreactivity
16,QVQLVESGGRKVQAGGSLRLSCAASGYTSSRYAMGRYRPAPGKERELVAAISGTGGSTNYADSVKGRFTISRDNAKNNVYLQKNSLKPEDTAVYYCAKRSRTYGTSPYYYWGQGTQVSVSS,high polyreactivity
17,QVQLVESGGGLVQAGGSLRLSCAASGRTYGIYAMGWYRQAPGKERELVADITIGGSTYYADSVMGRFTISRDNAKNTVYLQMNSLKPEDTAVYYCNADFVVQYYFTYYRVFTYDYWGLGTQVTVSS,low polyreactivity
18,QVQLVESGGGLVQAGGSLRLSCAASGSIFGPNAMGWYRQAPGKERELGAAISWRGGSTYYADSVKGRFTISRDTAKNTVYLQMNSLKPEDTAVYYCNKYLTWAEGLPGYDYWGQGTQVTVSS,high polyreactivity
19,QVQLVESGGGLVQAGGSLRLSCAASGSTFYKYAMGWYRQAPGKERELVAAISTRGGSTYYADSVKWRFTISRDNAKNTVYLQMNSLKPEDTAVFYCAADGRGGHDVYWGQGSQVTVSS,high polyreactivity
20,QVQLVESGGGLVQAGGSLRLSCAASGRTFAINARGWYRQAPGKERELVAAITTSGGGTYYADSVKGRFTISRDNAKNTVYLQMNSLKPEDTAVYYCAAGTSYYTYRFYAWDYDYWGQGTQVTVSS,low polyreactivity
